“Also recorded” adds a separate entry of the source.
Key:
Format in all cases: in vivo, Balb/c mice
4T1 primary tumors = experiment: CD45+ immune cells purified from excised 4T1 primary tumors (Example 2); details: monotherapy (Group 2 docetaxel; Group 5 AB-16B5); primary tumors excised at Day 16
From the text: The primary tumors excised at Day 16 post implantation, were processed with collagenase and hyaluronidase and immune cells were purified by positive selection using magnetic latex beads coated with an anti-CD45 antibody. The purified cells were transferred into small petri dishes containing culture medium supplemented with IL2 and IL7 to perform phenotypic analyses.

[1] = tested on: 4T1 mouse mammary carcinoma cells; experiment: Number of metastatic lung nodules in 4T1-implanted animals (Example 2); details: monotherapy IP for 5 weeks (Group 2 docetaxel 10 mg/kg weekly; Group 5 AB-16B5 twice weekly); counted Day 37
Procedure: Five groups, each consisting of 10 female Balb/c mice were assigned to this study (see Table 1 below). All animals received subcutaneous implantation of 4T1 mouse mammary carcinoma cells in the 4th inguinal mammary gland. Treatment was initiated on the day of implantation (defined as Day 1). Animals from Group 1 (Gr. 1) received IP treatment of saline vehicle control twice a week for the duration of the study. Animals from Group 2 (Gr. 2) received 10 mg/kg of docetaxel weekly for five weeks by IP administration. Animals from Group 3 (Gr. 3) received 10 mg/kg of docetaxel weekly for two weeks and 10 mg/kg of AB-16B5, twice weekly for five weeks. Animals from Group 4 (Gr. 4) received 10 mg/kg of docetaxel weekly and 5 mg/kg of 16B5 twice weekly each over the course of a five weeks treatment. Animals from Group 5 (Gr. 5) received AB-16B5 twice weekly for five weeks. On Day 36, the primary tumors were excised and on Day 37, the animals were sacrificed and the number of grossly visible metastatic nodules on the surface of the lungs was counted.

4T1 lung metastases = experiment: Immunohistochemistry of lung metastases in 4T1-implanted mice (Example 1); details: 10 mg/kg IP thrice a week
From the text: Balb/c mice were orthotopically implanted with 5×10^5 4T1 cells in the 4th mammary fat pad. Animals received IP saline treatment thrice weekly. The primary tumor was surgically removed at Day 16 post-implantation. The animals were sacrificed at Day 36 and the lungs were excised. Tissues were fixed in paraformaldehyde and processed for paraffin embedding. Tissue sections were probed with anti-mouse CD3, anti-mouse CD8 and anti-mouse B220 antibodies. […] Results presented in FIG. 1 indicate that the 4T1 lung metastases create an immune cold microenvironment which prevents the infiltration of B and T lymphocytes in tumors. Delineated regions indicate that CD3 and CD8 T lymphocytes are restricted in the tumor margin as a consequence of EMT.
Animals bearing 4T1 tumors were treated with the AB-16B5 antibody (murine 16B5) thrice a week IP at 10 mg/kg. The primary tumor was surgically removed at Day 16 post-implantation. The animals were sacrificed at Day 36 and the lungs were excised. Tissues were fixed in paraformaldehyde and processed for paraffin embedding. Tissue sections were probed with anti-mouse CD3, anti-mouse CD8 and anti-mouse B220 antibodies.

Molecule | CD45+ immune cells in primary tumors (4T1 primary tumors) | metastatic lung nodules [1] | plasmocytes penetration in tumors (4T1 lung metastases; Day 36) | T lymphocyte infiltration of lung metastases (4T1 lung metastases; Day 36, anti-CD3, anti-CD8 staining) | lung metastases (number and size) (4T1 lung metastases; lungs excised Day 36, FIG. 2)
CC(=O)O[C@@]12CO[C@@H]1C[C@H](O)[C@@]1(C)C(=O)[C@H](O)C3=C(C)[C@@H](OC(=O)[C@H](O)[C@@H](NC(=O)OC(C)(C)C)c4ccccc4)C[C@@](O)([C@@H](OC(=O)c4ccccc4)[C@H]21)C3(C)C [docetaxel] | very few CD45+ were present | as many metastatic lung nodules as the saline control group; also recorded: relatively ineffective |  |  | 
AB-16B5: anti-clusterin antibody, murine 16B5 (VL SEQ ID NO:7, VH SEQ ID NO:8), used in the mouse studies (antibody, V domains shown, Murine 16B5 VH; Murine 16B5 VL) VH: EVQLQQSGAELVKPGASVRLSCTTSGFNIKDIYMHWVKQRPEQGLEWIGRIDPAYGNTKYDPKFQGKATITADTSSNTAYLQLSSLTSEDTAVYYCARRYDTAMDYWGQGTSVTVSS VL: DIVMSQSPSSLAVSAGEKVTMSCKSSQSLLNSRTRKNYLAWYQQKPGQSPKLLIYWASTRESGVPDRFTGSGSGTDFTLTISSVQAEDLAVYYCKQSYNLWTFGGGTKLEFK | more immune cells | less metastatic lung nodules than the saline-control-treated mice | evidence of plasmocytes penetration | densely infiltrated with CD3 and CD8 T cells | fewer and much smaller lung metastases
